Test results published in the supplement of paper PMC10065799, “High-throughput profiling of sequence recognition by tyrosine kinases and SH2 domains using bacterial peptide display” (eLife, 2023).

Columns and labels:
Grb2 SH2 = Grb2 SH2 (UniProt P62993); assay: SH2 binding enrichment of the phosphorylated peptide, bacterial display (enrichment ratio); higher = better substrate or ligand; peptides without Tyr show the background
c-Src SH2 = assay: as above
SHP2-C SH2 = assay: as above
c-Abl (mouse) = assay: phosphorylation enrichment, bacterial display (enrichment ratio); higher = better substrate or ligand; peptides without Tyr show the background
Jak2 = Jak2 (UniProt O60674); assay: as above
Jak2, sequence (O60674 whole entry, looked up): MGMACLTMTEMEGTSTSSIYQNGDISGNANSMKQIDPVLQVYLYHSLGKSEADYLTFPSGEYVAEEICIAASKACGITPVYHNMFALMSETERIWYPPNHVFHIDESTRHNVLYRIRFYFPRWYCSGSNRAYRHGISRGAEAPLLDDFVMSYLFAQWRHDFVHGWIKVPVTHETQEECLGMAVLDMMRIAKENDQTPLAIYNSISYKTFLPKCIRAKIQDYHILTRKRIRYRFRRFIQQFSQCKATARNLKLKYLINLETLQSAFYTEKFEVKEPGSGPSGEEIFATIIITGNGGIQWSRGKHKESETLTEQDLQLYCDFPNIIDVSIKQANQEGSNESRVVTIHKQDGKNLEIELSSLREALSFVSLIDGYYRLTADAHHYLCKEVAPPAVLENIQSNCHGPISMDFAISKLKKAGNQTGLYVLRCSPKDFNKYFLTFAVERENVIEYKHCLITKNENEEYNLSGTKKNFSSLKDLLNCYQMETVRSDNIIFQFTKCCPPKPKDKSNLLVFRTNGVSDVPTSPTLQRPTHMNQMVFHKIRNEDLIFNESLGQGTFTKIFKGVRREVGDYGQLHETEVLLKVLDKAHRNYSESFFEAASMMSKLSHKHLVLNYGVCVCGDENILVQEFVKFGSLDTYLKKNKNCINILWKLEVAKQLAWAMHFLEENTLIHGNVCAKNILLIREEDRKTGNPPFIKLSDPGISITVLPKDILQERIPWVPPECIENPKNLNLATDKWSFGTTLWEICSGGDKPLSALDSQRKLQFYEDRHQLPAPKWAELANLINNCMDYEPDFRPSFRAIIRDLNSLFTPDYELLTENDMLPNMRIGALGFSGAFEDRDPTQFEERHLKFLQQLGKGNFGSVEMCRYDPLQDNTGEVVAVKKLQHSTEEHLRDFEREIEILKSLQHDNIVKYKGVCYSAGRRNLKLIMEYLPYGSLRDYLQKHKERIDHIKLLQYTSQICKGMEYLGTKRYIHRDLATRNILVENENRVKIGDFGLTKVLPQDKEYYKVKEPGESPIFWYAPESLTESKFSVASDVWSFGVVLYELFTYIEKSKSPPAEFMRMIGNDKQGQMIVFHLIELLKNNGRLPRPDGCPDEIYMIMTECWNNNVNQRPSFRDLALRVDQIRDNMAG

EPHB2 = EPHB2 (UniProt P29323); assay: as above
Fer (mouse) = assay: as above
FGFR1 = FGFR1 (UniProt P11362); assay: as above
FGFR1, sequence (P11362 whole entry, looked up): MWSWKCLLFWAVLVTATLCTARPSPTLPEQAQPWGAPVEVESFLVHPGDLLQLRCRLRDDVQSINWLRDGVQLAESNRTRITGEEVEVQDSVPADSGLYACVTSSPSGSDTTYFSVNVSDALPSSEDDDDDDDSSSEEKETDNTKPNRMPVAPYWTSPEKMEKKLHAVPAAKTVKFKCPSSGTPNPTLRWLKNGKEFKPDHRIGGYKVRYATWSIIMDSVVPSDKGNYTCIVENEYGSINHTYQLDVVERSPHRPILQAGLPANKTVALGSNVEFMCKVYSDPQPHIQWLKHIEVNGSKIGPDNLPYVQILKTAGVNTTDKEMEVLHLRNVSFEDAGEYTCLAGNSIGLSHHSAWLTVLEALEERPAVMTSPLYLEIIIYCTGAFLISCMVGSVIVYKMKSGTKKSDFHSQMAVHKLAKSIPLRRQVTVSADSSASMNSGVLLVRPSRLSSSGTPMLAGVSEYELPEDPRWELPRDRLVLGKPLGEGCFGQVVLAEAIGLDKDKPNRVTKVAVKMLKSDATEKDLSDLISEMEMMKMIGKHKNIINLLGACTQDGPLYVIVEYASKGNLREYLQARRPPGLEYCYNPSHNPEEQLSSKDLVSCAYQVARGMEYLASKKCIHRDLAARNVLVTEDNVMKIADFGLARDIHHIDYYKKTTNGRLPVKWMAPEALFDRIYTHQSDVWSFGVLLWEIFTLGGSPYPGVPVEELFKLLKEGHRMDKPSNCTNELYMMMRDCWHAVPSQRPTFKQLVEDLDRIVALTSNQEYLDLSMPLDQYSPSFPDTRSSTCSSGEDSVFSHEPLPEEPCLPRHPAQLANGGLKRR

Fes = Fes (UniProt P07332); assay: as above
Fyn = Fyn (UniProt P06241); assay: as above
FGFR3 = FGFR3 (UniProt P22607); assay: as above
FGFR3, sequence (P22607 whole entry, looked up): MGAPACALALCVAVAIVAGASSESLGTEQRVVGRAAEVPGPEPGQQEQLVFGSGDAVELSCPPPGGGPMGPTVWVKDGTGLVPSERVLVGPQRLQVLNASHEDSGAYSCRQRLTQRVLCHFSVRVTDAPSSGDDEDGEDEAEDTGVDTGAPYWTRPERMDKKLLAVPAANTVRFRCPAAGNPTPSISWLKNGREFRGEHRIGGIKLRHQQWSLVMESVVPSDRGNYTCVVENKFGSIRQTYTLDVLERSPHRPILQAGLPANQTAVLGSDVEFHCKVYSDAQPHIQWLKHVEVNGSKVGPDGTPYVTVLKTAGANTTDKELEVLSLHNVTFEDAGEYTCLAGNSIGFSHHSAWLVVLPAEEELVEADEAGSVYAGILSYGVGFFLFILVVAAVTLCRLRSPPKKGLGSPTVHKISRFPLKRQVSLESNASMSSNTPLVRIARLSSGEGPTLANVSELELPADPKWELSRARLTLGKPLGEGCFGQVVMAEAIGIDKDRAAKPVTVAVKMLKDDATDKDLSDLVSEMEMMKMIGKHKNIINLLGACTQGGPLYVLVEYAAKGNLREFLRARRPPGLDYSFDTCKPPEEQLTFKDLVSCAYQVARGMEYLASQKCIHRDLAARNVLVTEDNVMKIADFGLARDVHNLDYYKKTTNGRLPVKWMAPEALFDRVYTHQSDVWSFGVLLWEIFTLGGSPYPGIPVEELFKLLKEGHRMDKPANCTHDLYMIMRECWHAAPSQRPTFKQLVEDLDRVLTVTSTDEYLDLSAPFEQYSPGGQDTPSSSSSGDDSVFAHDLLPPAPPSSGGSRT

AncSZ = assay: as above
c-Src = assay: as above
MERTK = MERTK (UniProt Q12866); assay: as above
MERTK, sequence (Q12866 whole entry, looked up): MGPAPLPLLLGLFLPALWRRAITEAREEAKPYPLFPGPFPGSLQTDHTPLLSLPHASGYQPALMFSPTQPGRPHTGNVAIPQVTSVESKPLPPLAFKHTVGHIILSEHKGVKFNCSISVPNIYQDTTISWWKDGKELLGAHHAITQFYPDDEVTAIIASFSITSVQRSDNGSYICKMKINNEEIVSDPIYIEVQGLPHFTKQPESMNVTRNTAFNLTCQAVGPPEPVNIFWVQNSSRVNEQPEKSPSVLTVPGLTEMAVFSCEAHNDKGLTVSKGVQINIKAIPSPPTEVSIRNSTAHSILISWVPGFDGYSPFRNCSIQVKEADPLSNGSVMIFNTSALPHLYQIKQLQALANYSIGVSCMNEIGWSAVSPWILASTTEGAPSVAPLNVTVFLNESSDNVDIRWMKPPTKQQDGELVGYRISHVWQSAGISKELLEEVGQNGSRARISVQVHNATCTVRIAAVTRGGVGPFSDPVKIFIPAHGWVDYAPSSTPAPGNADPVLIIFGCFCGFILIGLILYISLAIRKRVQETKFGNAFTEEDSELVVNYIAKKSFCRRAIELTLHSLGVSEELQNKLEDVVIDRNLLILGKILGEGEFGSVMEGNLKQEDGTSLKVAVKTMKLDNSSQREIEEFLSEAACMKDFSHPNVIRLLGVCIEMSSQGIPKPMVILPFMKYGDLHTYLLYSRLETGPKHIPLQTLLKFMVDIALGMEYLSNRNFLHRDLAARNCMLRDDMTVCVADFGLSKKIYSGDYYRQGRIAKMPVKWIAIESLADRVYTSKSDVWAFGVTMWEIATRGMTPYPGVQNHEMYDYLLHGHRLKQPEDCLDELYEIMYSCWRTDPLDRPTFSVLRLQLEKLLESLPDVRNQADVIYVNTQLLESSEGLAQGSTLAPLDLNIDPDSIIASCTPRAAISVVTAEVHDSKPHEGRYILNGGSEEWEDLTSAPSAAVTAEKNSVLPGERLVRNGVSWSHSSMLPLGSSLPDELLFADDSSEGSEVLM

EPHB1 = EPHB1 (UniProt P54762); assay: as above
EPHB1, sequence (P54762 whole entry, looked up): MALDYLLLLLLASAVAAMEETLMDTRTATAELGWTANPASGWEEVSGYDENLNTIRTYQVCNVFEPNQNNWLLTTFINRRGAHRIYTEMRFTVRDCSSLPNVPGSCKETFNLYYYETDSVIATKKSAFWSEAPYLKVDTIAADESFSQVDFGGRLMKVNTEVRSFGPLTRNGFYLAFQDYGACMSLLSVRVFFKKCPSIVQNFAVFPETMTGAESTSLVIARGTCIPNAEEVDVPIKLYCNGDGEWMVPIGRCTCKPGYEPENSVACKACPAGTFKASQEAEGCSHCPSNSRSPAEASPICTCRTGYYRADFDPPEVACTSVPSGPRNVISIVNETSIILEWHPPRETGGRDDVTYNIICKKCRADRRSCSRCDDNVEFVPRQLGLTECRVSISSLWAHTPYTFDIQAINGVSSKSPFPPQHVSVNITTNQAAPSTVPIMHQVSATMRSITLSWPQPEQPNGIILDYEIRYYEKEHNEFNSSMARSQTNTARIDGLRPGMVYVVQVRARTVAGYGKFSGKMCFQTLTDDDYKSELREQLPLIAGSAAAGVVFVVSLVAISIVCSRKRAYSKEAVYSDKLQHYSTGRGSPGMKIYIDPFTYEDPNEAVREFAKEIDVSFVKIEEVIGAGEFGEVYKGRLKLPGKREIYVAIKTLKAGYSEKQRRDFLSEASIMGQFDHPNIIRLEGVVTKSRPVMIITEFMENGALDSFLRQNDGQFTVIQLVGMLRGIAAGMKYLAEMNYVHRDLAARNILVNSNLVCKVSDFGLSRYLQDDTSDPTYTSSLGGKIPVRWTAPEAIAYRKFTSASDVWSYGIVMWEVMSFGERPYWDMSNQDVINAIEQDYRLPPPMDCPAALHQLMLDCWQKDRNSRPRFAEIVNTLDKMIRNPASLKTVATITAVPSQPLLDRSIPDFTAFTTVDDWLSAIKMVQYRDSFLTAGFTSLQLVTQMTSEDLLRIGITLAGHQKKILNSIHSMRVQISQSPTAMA

Hck = Hck (UniProt P08631); assay: as above
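Wherever SH2 binding enrichment of the phosphorylated peptide, bacterial display is given: peptide library displayed on the E. coli surface as eCPX fusions, selected cells deep-sequenced, score is each peptide's frequency after selection divided by its frequency in the input.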
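Wherever phosphorylation enrichment, bacterial display is given: 11-residue human phosphosite peptides and single-mutation variants displayed on the E. coli surface, counted by deep sequencing, each peptide's frequency after selection divided by its frequency in the unselected input library; frequency after pTyr selection over input frequency; kinase dosed for 20-30% of maximal phosphorylation in three min.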

Sequence | SH2 binding enrichment (Grb2 SH2) | SH2 binding enrichment (c-Src SH2) | SH2 binding enrichment (SHP2-C SH2) | phosphorylation enrichment (c-Abl (mouse)) | phosphorylation enrichment (Jak2) | phosphorylation enrichment (EPHB2) | phosphorylation enrichment (Fer (mouse)) | phosphorylation enrichment (FGFR1) | phosphorylation enrichment (Fes) | phosphorylation enrichment (Fyn) | phosphorylation enrichment (FGFR3) | phosphorylation enrichment (AncSZ) | phosphorylation enrichment (c-Src) | phosphorylation enrichment (MERTK) | phosphorylation enrichment (EPHB1) | phosphorylation enrichment (Hck)
LKGIRYLTSGL [PIGA_Y82_R77L] | 1.32 | 0.564 | 1.03 | 1.28 | 0.959 | 0.913 | 1.01 | 0.691 | 1.09 | 1.05 | 0.452 | 1.03 | 0.762 | 0.644 | 1.12 | 0.937
LKVDVYGRSHK [FUT3_Y222] | 0.715 | 0.561 | 0.621 | 0.629 | 0.588 | 0.778 | 0.441 | 0.782 | 0.869 | 0.324 | 1.1 | 1 | 0.379 | 0.37 | 0.553 | 0.625
LLFRVYGLESL [INSR_Y94] | 0.718 | 0.588 | 0.734 | 1.15 | 1.77 | 0.828 | 0.757 | 0.542 | 1.76 | 0.752 | 1.4 | 1.88 | 0.565 | 0.792 | 0.96 | 0.465
LQTFHYHGHSM [PDHA1_Y289_R288H_YF] | 1.47 | 1.27 | 1.47 | 0.493 | 0.641 | 0.448 | 0.435 | 0.419 | 0.715 | 0.501 | 0.536 | 0.599 | 1.2 | 0.501 | 0.322 | 0.533
LQTYRYHGLSM [PDHA1_Y289_H292L] | 1.25 | 0.399 | 0.815 | 0.564 | 0.576 | 0.746 | 0.572 | 0.749 | 1.13 | 0.703 | 0.915 | 0.927 | 0.471 | 0.443 | 0.673 | 0.648
LRNIDYFRLDG [ATRX_Y2083_YF] | 0.761 | 0.595 | 22.6 | 5.39 | 26.8 | 3.05 | 1.7 | 21.5 | 4.09 | 2.77 | 10.8 | 3.71 | 3.74 | 3.41 | 2.95 | 1.63
LRVGFYESDVM [A2M_Y708] | 0.934 | 4.14 | 1.02 | 1.9 | 2.04 | 0.934 | 1.62 | 1.39 | 3.12 | 1.28 | 2.89 | 2.97 | 1.33 | 2.61 | 1.86 | 0.996
LSIQTYSALNF [DES_Y423_P419S] | 0.824 | 1.34 | 1.43 | 1.46 | 1.76 | 4.34 | 2.61 | 0.991 | 2.14 | 4.8 | 1.09 | 1.58 | 5.21 | 6.97 | 3.92 | 6.9
LSVMSYDLGMF [GBA3_Y174] | 0.624 | 0.603 | 0.887 | 1.07 | 1.44 | 0.707 | 0.602 | 0.789 | 1.59 | 0.759 | 1.13 | 1.31 | 0.75 | 0.62 | 0.876 | 0.947
LTDTVYSSSSA [OR4C12_Y71_I67T] | 1.07 | 0.349 | 0.899 | 0.911 | 1.09 | 0.374 | 1.69 | 0.694 | 1.15 | 2.53 | 0.586 | 1.12 | 2.33 | 0.58 | 0.323 | 1.93
LVPPRYVRSEI [PKP2_Y194_A195V] | 0.788 | 0.506 | 0.632 | 0.58 | 0.685 | 0.645 | 0.522 | 0.469 | 0.94 | 0.431 | 0.605 | 0.612 | 0.555 | 0.588 | 0.538 | 0.321
LVRPPYSYLAL [FOXI1_Y126_S129L] | 1.06 | 3.64 | 3.61 | 0.757 | 2.16 | 0.536 | 1.23 | 1.62 | 0.645 | 0.438 | 1.33 | 0.602 | 0.498 | 2.78 | 0.63 | 0.678
LVSCTYQLATG [FGFR2_Y608_R612T] | 0.729 | 0.456 | 0.739 | 0.83 | 1.05 | 0.668 | 0.615 | 0.559 | 1.3 | 0.596 | 0.764 | 1.41 | 0.952 | 0.546 | 0.717 | 0.631
LWKWKYEELKE [CCDC102B_Y299] | 1.43 | 0.81 | 0.808 | 0.725 | 1.09 | 0.493 | 0.712 | 0.573 | 1.73 | 0.631 | 1.24 | 1.28 | 0.27 | 0.336 | 0.92 | 0.513
LYDPDFMKVIL [CYP4A22_Y104_Y104F] | 0.785 | 0.467 | 0.634 | 1.8 | 1.39 | 1.01 | 1.09 | 0.562 | 1.78 | 0.888 | 0.688 | 1.18 | 0.954 | 2.57 | 0.772 | 0.634
MARDIYRASYY [ALK_Y1278] | 0.877 | 0.839 | 0.708 | 1.77 | 0.702 | 0.439 | 0.408 | 0.624 | 0.683 | 0.688 | 0.63 | 0.685 | 1.58 | 0.673 | 0.466 | 1.01
MASISYDFCRV [BST2_Y6_T4I_YF] | 0.764 | 0.672 | 0.666 | 0.908 | 1.03 | 0.712 | 1.59 | 0.496 | 1.17 | 0.554 | 0.824 | 1.24 | 0.497 | 0.653 | 0.692 | 0.629
MDDKEYYSVHN [MET_Y1234_Y1230D] | 0.952 | 0.557 | 0.759 | 0.747 | 1.03 | 0.62 | 0.54 | 2.06 | 1.06 | 0.575 | 1.88 | 1.99 | 0.695 | 0.373 | 0.613 | 0.619
METKGYQSLPE [NR3C2_Y6_H7Q] | 0.728 | 0.841 | 0.557 | 0.683 | 0.77 | 0.449 | 0.448 | 0.449 | 0.825 | 0.421 | 0.568 | 0.682 | 0.326 | 0.361 | 0.495 | 0.423
MFNPCYGLFEY [NEDD4L_Y680_Y679C] | 0.867 | 0.641 | 0.633 | 0.842 | 1.11 | 0.604 | 1.6 | 0.616 | 1.32 | 5.24 | 0.752 | 1.26 | 5.01 | 1.69 | 0.739 | 2.54

Second part, led by results:

SH2 binding enrichment (Grb2 SH2) | SH2 binding enrichment (c-Src SH2) | SH2 binding enrichment (SHP2-C SH2) | Sequence | phosphorylation enrichment (c-Abl (mouse)) | phosphorylation enrichment (Jak2) | phosphorylation enrichment (EPHB2) | phosphorylation enrichment (Fer (mouse)) | phosphorylation enrichment (FGFR1) | phosphorylation enrichment (Fes) | phosphorylation enrichment (Fyn) | phosphorylation enrichment (FGFR3) | phosphorylation enrichment (AncSZ) | phosphorylation enrichment (c-Src) | phosphorylation enrichment (MERTK) | phosphorylation enrichment (EPHB1) | phosphorylation enrichment (Hck)
0.99 | 0.74 | 0.501 | LKLWDYSRGRC [WDR5B_Y239] | 0.643 | 0.724 | 1.01 | 0.796 | 0.597 | 1.19 | 0.66 | 0.694 | 0.966 | 0.39 | 0.736 | 0.73 | 0.451
0.829 | 0.982 | 1.24 | LKSEMYQKLFK [RGS13_Y146_L150F] | 0.769 | 1.77 | 0.614 | 0.596 | 0.715 | 0.993 | 0.493 | 0.923 | 1.02 | 0.626 | 0.7 | 0.5 | 0.756
0.899 | 0.896 | 1.1 | LLKKIYLMLDN [STAT1_Y203_M202I] | 1.85 | 2.05 | 0.817 | 0.67 | 1.08 | 2.38 | 0.562 | 1.31 | 1.85 | 0.977 | 0.822 | 1.15 | 0.85
1.64 | 1.11 | 1.59 | LLNAIYLSAKR [SERPING1_Y294_W299R] | 1.61 | 1.65 | 0.846 | 0.85 | 0.617 | 1.43 | 0.86 | 0.963 | 1.58 | 1.09 | 0.947 | 0.659 | 1.36
1.66 | 1.33 | 1.99 | LLVVLCKYRCY [PSEN1_Y154_Y154C] | 0.606 | 0.786 | 0.466 | 0.353 | 0.414 | 1.01 | 0.377 | 0.536 | 0.873 | 0.369 | 0.315 | 0.532 | 0.382
0.956 | 0.547 | 0.65 | LNTFHHAGVSA [POLR2A_Y1109_Y1109H] | 1.36 | 1.19 | 0.76 | 0.766 | 0.462 | 2.04 | 0.356 | 0.731 | 0.884 | 1.17 | 0.883 | 0.632 | 0.575
0.835 | 0.454 | 0.504 | LREIRYQGGNR [VWF_Y1570_V1565L] | 0.653 | 0.643 | 0.518 | 0.537 | 0.671 | 0.636 | 0.756 | 0.551 | 0.796 | 0.488 | 0.52 | 0.385 | 0.469
0.893 | 0.373 | 0.359 | LRGVIYVILRK [PMP22_Y153_S149R] | 0.778 | 1.15 | 0.551 | 0.577 | 0.665 | 1.09 | 0.65 | 0.833 | 2.21 | 0.713 | 0.393 | 0.58 | 0.509
0.974 | 1.43 | 0.803 | LRYDSYWSYCN [SLC20A2_Y433_S434W] | 1.68 | 2.4 | 9.36 | 1.51 | 3.88 | 1.53 | 5.26 | 3.72 | 2.25 | 4.87 | 5.37 | 7.63 | 4.95
0.748 | 0.472 | 0.739 | LTFPDYLPCSV [SAG_Y129] | 1.13 | 2.91 | 0.601 | 0.715 | 3.74 | 1.44 | 0.427 | 3.07 | 2.34 | 0.535 | 0.463 | 0.879 | 0.479
0.89 | 0.768 | 1.23 | LTGIAYGLPHW [SLC22A14_Y291_S292G] | 0.705 | 0.924 | 0.558 | 0.424 | 0.523 | 1.25 | 0.578 | 0.618 | 1.16 | 0.574 | 0.508 | 0.56 | 0.631
2.09 | 1.2 | 1.8 | LVMFIYAIFGM [SCN1A_Y1684] | 1.55 | 1.94 | 1.03 | 1.19 | 0.952 | 1.88 | 1.21 | 1.41 | 1.49 | 1.99 | 1.13 | 1.03 | 0.777
1.74 | 1.67 | 2.28 | LVMFIYDIFGM [SCN1A_Y1684_A1685D] | 1.55 | 1.72 | 2.92 | 3.13 | 1.66 | 3.08 | 8.72 | 1.9 | 5.48 | 6.25 | 5.95 | 2.11 | 5.56
